T1: mouse DLL3 protein (mouse, UniProt O88516 33-490, limits assumed)
T1 construct: also called murine DLL3
T1 sequence (looked up): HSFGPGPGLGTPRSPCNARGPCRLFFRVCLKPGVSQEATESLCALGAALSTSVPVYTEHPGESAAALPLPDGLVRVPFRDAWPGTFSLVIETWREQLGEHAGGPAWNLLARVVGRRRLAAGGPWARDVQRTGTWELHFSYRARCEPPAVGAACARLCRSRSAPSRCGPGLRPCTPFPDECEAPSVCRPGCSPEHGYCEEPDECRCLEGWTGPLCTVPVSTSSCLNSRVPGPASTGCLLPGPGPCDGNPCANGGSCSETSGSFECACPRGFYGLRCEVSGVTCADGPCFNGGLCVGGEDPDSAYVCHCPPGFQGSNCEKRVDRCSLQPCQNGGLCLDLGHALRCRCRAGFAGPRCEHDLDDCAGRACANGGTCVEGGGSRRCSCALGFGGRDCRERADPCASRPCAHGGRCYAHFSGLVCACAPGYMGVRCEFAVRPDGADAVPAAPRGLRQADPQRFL

T2: mouse DLL3 on CHO cells (mouse, UniProt O88516 33-592)
T2 construct: whole, on cells; also called CHO cells expressing mouse DLL3
T2 sequence (looked up): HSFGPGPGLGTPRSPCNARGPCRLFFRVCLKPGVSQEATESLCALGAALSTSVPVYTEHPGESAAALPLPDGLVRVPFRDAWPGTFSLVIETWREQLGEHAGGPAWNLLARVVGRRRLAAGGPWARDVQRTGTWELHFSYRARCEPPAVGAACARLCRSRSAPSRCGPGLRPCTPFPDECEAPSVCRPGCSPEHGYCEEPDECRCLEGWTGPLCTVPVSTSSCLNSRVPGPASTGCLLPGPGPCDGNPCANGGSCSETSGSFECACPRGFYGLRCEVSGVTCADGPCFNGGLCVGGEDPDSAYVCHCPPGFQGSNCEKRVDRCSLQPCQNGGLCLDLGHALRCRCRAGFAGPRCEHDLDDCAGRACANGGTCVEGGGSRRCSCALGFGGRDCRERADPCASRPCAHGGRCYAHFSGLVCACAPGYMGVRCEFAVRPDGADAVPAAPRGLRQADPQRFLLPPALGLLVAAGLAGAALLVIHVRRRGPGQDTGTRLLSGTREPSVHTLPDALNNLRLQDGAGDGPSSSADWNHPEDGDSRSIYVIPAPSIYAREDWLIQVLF

T3: DLL3 target antigen coated on Octet SA tips (binning experiment) (Homo sapiens (Human), UniProt Q9NYJ7 27-492, Probably biotinylated for capture on streptavidin (SA) tips. The site is not stated.)
T3 sequence: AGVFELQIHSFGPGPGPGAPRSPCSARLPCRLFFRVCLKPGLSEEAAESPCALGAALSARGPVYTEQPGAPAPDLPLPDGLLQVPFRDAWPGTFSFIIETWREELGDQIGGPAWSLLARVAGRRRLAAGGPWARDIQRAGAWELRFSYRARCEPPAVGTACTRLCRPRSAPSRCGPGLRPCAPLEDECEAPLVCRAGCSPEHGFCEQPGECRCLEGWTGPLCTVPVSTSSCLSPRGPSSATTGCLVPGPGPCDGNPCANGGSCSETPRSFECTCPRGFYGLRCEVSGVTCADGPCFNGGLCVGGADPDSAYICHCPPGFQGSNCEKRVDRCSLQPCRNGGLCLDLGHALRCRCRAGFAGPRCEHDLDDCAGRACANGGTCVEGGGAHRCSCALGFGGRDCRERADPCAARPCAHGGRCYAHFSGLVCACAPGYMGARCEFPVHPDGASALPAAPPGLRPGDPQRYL

T4: DLL3 (ELISA DLL3)
T4 construct: also called DLL3 protein in ELISA
T4 chain: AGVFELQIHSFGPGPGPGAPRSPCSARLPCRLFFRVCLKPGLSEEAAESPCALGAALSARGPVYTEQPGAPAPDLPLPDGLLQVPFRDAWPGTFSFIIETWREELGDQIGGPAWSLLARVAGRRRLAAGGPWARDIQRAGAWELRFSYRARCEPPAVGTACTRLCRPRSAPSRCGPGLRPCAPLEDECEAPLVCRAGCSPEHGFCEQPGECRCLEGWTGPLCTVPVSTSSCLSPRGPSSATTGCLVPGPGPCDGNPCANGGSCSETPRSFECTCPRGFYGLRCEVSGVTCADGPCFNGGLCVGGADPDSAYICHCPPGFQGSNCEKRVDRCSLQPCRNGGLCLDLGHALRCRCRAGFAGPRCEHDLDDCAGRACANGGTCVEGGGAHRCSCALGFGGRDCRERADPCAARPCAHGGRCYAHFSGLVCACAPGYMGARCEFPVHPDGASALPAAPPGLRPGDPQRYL

T5: recombinant human DLL3 protein (human, UniProt Q9NYJ7 27-492, limits assumed)
T5 construct: also called rhu DLL3; human biotinylated DLL3
T5 sequence (looked up): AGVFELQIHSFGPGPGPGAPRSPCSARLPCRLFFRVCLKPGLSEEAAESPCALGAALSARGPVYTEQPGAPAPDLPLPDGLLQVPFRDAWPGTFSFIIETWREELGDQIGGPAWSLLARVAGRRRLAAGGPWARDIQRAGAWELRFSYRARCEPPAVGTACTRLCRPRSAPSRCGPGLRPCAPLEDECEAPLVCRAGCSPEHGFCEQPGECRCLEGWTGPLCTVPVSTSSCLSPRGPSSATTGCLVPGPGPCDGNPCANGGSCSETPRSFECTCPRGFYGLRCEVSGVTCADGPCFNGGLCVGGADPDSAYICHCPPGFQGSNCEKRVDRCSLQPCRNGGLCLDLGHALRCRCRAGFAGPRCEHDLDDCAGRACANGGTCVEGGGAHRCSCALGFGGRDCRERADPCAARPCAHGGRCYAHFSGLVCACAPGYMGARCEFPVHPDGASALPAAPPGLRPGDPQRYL


What was measured:
mouse DLL3 protein = target: T1, mouse DLL3 protein; experiment: Octet (DLL3 on AR2G tips), ELISA and FACS; values only in FIG. 3
mouse DLL3 on CHO cells = target: T2, mouse DLL3 on CHO cells; experiment: flow cytometry (FACS) on CHO cells expressing mouse DLL3
Procedure: (§1) Additional experiments were carried out to further characterize the binding properties of the anti-DLL3 constructs. Binding properties tested include dissociation constant (KD), off-rate (koff), binding to DLL3 protein by ELISA and binding to CHO cells expressing human, cyno or mouse DLL3. To obtain off-rate (koff), human biotinylated DLL3 was immobilized on Octet SA tips, and cynomolgus or mouse DLL3 was immobilized on Octet AR2G tips. For each DLL3 protein, the binding to a dilution series of each anti-DLL3 construct was measured using Fortebio Octet Red. The dissociation constant (KD), off-rate (koff) and other kinetic parameters for each anti-DLL3 construct were calculated using a 1:1 binding model. In addition, binding of these anti-DLL3 constructs to CHO cells expressing human, cyno or mouse DLL3 protein was analyzed using flow cytometry (FACS).

[1] = target: T3, DLL3 target antigen coated on Octet SA …; experiment: Octet binning on DLL3-coated SA tips; competitor: 3HCE4
Procedure: (§2) Antibody binning experiments were carried out for 5 anti-DLL3 VHHs and an anti-human DLL3 BiTE (SEQ ID NO: 756). The target antigen was coated on a series of Octet SA tips. Each series of tips was first soaked in a periplasmic extract containing one specific VHH. After the response signals reached saturation, the tips were transferred to a mix of PEs containing again the first VHH (at the same concentration) plus a different VHH (termed secondary VHH) for each tip of the series. Secondary VHH that still bind the target antigen in the presence of the first VHH will show an increased response, as compared to the binding response of the first VHH alone. This was repeated for each VHH as primary VHH until all VHH were tested against each other in both directions (as primary and as secondary binder). From the response data, the bins were deduced for each VHH. 2HCE117 and 3HCE4 show competition with the human DLL3 BiTEs, whereas 3HCE56 and 3HCE87 show a partial competition.

[2] = target: T3, DLL3 target antigen coated on Octet SA …; experiment: Octet binning on DLL3-coated SA tips; competitor: 2HCE27
Procedure: as §2

[3] = target: T3, DLL3 target antigen coated on Octet SA …; experiment: Octet binning on DLL3-coated SA tips; competitor: 3HCE56
Procedure: as §2

[4] = target: T3, DLL3 target antigen coated on Octet SA …; experiment: Octet binning on DLL3-coated SA tips; competitor: 3HCE87
Procedure: as §2

[5] = target: T3, DLL3 target antigen coated on Octet SA …; experiment: Octet binning on DLL3-coated SA tips; competitor: 2HCE117
Procedure: as §2

[6] = target: T3, DLL3 target antigen coated on Octet SA …; experiment: Octet binning on DLL3-coated SA tips; competitor: DLL3 BiTEs
Procedure: as §2

DLL3 (ELISA DLL3) = target: T4, DLL3 (ELISA DLL3); experiment: ELISA, ratio of the signal on DLL3 to the signal on the control
[7] = target: T5, recombinant human DLL3 protein; experiment: Fortebio Octet Red, DLL3 immobilised on tips, dilution series of the VHH, 1:1 binding model; KD error 7.00E-11; Full R2 0.9522
Procedure: as §1

[8] = target: T5, recombinant human DLL3 protein; experiment: Fortebio Octet Red, DLL3 immobilised on tips, dilution series of the VHH, 1:1 binding model; kon error 2.27E+03; Full R2 0.9522
Procedure: as §1

[9] = target: T5, recombinant human DLL3 protein; experiment: Fortebio Octet Red, DLL3 immobilised on tips, dilution series of the VHH, 1:1 binding model; koff error 5.76E-06; Full R2 0.9522
Procedure: as §1

[10] = target: T5, recombinant human DLL3 protein; experiment: Fortebio Octet Red, DLL3 immobilised on tips, dilution series of the VHH, 1:1 binding model; KD error 2.22E-11; Full R2 0.9955
Procedure: as §1

[11] = target: T5, recombinant human DLL3 protein; experiment: Fortebio Octet Red, DLL3 immobilised on tips, dilution series of the VHH, 1:1 binding model; kon error 9.86E+02; Full R2 0.9955
Procedure: as §1

[12] = target: T5, recombinant human DLL3 protein; experiment: Fortebio Octet Red, DLL3 immobilised on tips, dilution series of the VHH, 1:1 binding model; koff error 2.13E-06; Full R2 0.9955
Procedure: as §1

[13] = target: T5, recombinant human DLL3 protein; experiment: Fortebio Octet Red, DLL3 immobilised on tips, dilution series of the VHH, 1:1 binding model; KD error 1.32E-09; Full R2 0.9111
Procedure: as §1

[14] = target: T5, recombinant human DLL3 protein; experiment: Fortebio Octet Red, DLL3 immobilised on tips, dilution series of the VHH, 1:1 binding model; kon error 7.26E+01; Full R2 0.9111
Procedure: as §1

[15] = target: T5, recombinant human DLL3 protein; experiment: Fortebio Octet Red, DLL3 immobilised on tips, dilution series of the VHH, 1:1 binding model; koff error 2.95E-06; Full R2 0.9111
Procedure: as §1

Binder	binding result (mouse DLL3 protein)	binding result (mouse DLL3 on CHO cells)	binning response (unit not given) [1]	binning response (unit not given) [2]	binning response (unit not given) [3]	binning response (unit not given) [4]	binning response (unit not given) [5]	binning response (unit not given) [6]	DLL3 / control (DLL3 (ELISA DLL3))	Kd [7] [nM]	kon [8] [M⁻¹ s⁻¹]	koff [9] [s⁻¹]	Kd [10] [nM]	kon [11] [M⁻¹ s⁻¹]	koff [12] [s⁻¹]	Kd [13] [nM]	kon [14] [M⁻¹ s⁻¹]	koff [15] [s⁻¹]
3HCE87 anti-DLL3 VHH (VHH, In the binning assay it was used as a periplasmic extract) VHH: QVQLQESGGGLVQAGGSLRLSCAASGFIFDDYIIGWFRQAPGKEREFVAAISWSGSATAYADSVKGRFTISRDNAKNTLYLQMNTLKPEDTAVYYCAASSRGPYNSGSSYDYWGQGTQVTVSS	binds	binds	-54.4	-48.2	204	0	1210	68.3	18.8	5.35	192000	0.00103						
anti-human DLL3 BiTE (bispecific antibody, also called DLL3 BiTEs) QVQLQESGPGLVKPSETLSLTCTVSGGSISSYYWSWIRQPPGKGLEWIGYVYYSGTTNYNPSLKSRVTISVDTSKNQFSLKLSSVTAADTAVYYCASIAVTGFYFDYWGQGTLVTVSSGGGGSGGGGSGGGGSEIVLTQSPGTLSLSPGERVTLSCRASQRVNNNYLAWYQQRPGQAPRLLIYGASSRATGIPDRFSGSGSGTDFTLTISRLEPEDFAVYYCQQYDRSPLTFGGGTKLEIK			121	82.5	1500	125	1280	0										

Now from value to binder:

binding result (mouse DLL3 protein)	binding result (mouse DLL3 on CHO cells)	binning response (unit not given) [1]	binning response (unit not given) [2]	binning response (unit not given) [3]	binning response (unit not given) [4]	binning response (unit not given) [5]	binning response (unit not given) [6]	DLL3 / control (DLL3 (ELISA DLL3))	Kd [7] [nM]	kon [8] [M⁻¹ s⁻¹]	koff [9] [s⁻¹]	Kd [10] [nM]	kon [11] [M⁻¹ s⁻¹]	koff [12] [s⁻¹]	Kd [13] [nM]	kon [14] [M⁻¹ s⁻¹]	koff [15] [s⁻¹]	Binder
binds	binds	0	347	407	120	3510	9.03	65.7				5.15	249000	0.00128				3HCE4 anti-DLL3 VHH (VHH, In the binning assay it was used as a periplasmic extract) VHH: QVQLQESGGGLVQAGASLKLSCAVSGRAGSSYDMGWLRQAPGKEREFVAIITWSGNTAYKDSVKGRFIISRDNAKNTVYLEMNSLAPEDTAVYYCAAALSEKKYEYWGQGTQVTVSS
binds	binds	-90.1	-73	-207	-98.7	0	-23.2	29.4							101	5960	0.0006	2HCE117 anti-DLL3 VHH (VHH, In the binning assay it was used as a periplasmic extract) VHH: QVQLQESGGGLVQPGGSLRLSCAASGFTFSSYAMSWVRQAPGKGLEWVSDINSGGGSTYYADSVKGRFTISRDNAKNTLYLQMDSLKPEDTAVYYCATPFEIGSWGQGTQVTVSS
